The values that follow come from patent EP2061494B1 (Universita' Degli Studi di Torino, dated 2012).

For the experiment, the target named is Src kinase (endogenous protein of MCF7 cells) (human, UniProt P12931 2-536). The experiment can be described thus: cell-based or functional assay.

B1: p140Cap (endogenous protein of MCF7 human breast carcinoma cell extracts) (other, UniProt Q9C0H9 1-1183, looked up)
chain: MGNAPSQDPERSSPPMLSADDAEYPREYRTLGGGGGGGSGGRRFSNVGLVHTSERRHTVIAAQSLEALSGLQKADADRKRDAFMDHLKSKYPQHALALRGQQDRMREQPNYWSFKTRSSRHTQGAQPGLADQAAKLSYASAESLETMSEAELPLGFSRMNRFRQSLPLSRSASQTKLRSPGVLFLQFGEETRRVHITHEVSSLDTLHALIAHMFPQKLTMGMLKSPNTAILIKDEARNVFYELEDVRDIQDRSIIKIYRKEPLYAAFPGSHLTNGDLRREMVYASRESSPTRRLNNLSPAPHLASGSPPPGLPSGLPSGLQSGSPSRSRLSYAGGRPPSYAGSPVHHAAERLGGAPAAQGVSPSPSAILERRDVKPDEDLASKAGGMVLVKGEGLYADPYGLLHEGRLSLAAAAGDPFAYPGAGGLYKRGSVRSLSTYSAAALQSDLEDSLYKAAGGGGPLYGDGYGFRLPPSSPQKLADVAAPPGGPPPPHSPYSGPPSRGSPVRQSFRKDSGSSSVFAESPGGKTRSAGSASTAGAPPSELFPGPGERSLVGFGPPVPAKDTETRERMEAMEKQIASLTGLVQSALLRGSEPETPSEKIEGSNGAATPSAPCGSGGRSSGATPVSGPPPPSASSTPAGQPTAVSRLQMQLHLRGLQNSASDLRGQLQQLRKLQLQNQESVRALLKRTEAELSMRVSEAARRQEDPLQRQRTLVEEERLRYLNDEELITQQLNDLEKSVEKIQRDVSHNHRLVPGPELEEKALVLKQLGETLTELKAHFPGLQSKMRVVLRVEVEAVKFLKEEPQRLDGLLKRCRGVTDTLAQIRRQVDEGVWPPPNNLLSQSPKKVTAETDFNKSVDFEMPPPSPPLNLHELSGPAEGASLTPKGGNPTKGLDTPGKRSVDKAVSVEAAERDWEEKRAALTQYSAKDINRLLEETQAELLKAIPDLDCASKAHPGPAPTPDHKPPKAPHGQKAAPRTEPSGRRGSDELTVPRYRTEKPSKSPPPPPPRRSFPSSHGLTTTRTGEVVVTSKKDSAFIKKAESEELEVQKPQVKLRRAVSEVARPASTPPIMASAIKDEDDEDRIIAELESGGGSVPPMKVVTPGASRLKAAQGQAGSPDKSKHGKQRAEYMRIQAQQQATKPSKEMSGSNETSSPVSEKPSASRTSIPVLTSFGARNSSISF
Consider B1, for which the “Src activity induced by adhesion to fibronectin (in vitro kinase assay) after shRNA down-regulation of p140Cap” value turned out to be 5 fold.
